Data as given in US20230391886A1.

Target: MUC18 (target of JM1-24-3 as used in Bio-Layer Interferometry) (Homo sapiens (Human)) (UniProt P43121)
Test: Bio-Layer Interferometry, Octet RED384

- Kd: 1.6 nM
B1: JM1-24-3 (antibody, V domains shown)
VH: MSCKASGYAFTSYWMNWIKERPGQGLEWIGAIDPFNGYTEYNHKFKDKAILTADNSSSTVYMQLSSLTSEDSAVYYCARWGGRLYFDYWGQGTTLTVSS
VL: MTQSPSSMYASLGERVTITCKASQDINSFLSWFQQKPGKSPKTLIYRANRLVDGVPSRFSGSGSGQDYSLTISSLEYEDMGIYYCLQYDEFPYTFGGGTKLEIKR
